# Reference: patent US20240158515A1 (Regeneron, published 2024)
# Numbering of substitutions follows the chain as printed.
# B1: H4H30108P2 (antibody, human IgG4 S228P, kappa, V domains shown)
# VH: QVQLVQSGAEVKKPGASVKVSCKASGYTFNSYDVNWVRQATGQGLEWMGWMNPHSGNTGYAQKFQGRVTMTRDTSTSTSYMELSSLTSEDTAVYYCARGPFSLLSAEFFQHWGQGTLVTVSS
# VL: not shown
# B2: H4H30102P2 (antibody, human IgG4 S228P, kappa, V domains shown)
# VH: EVQLVESGGDLVQPGGSLRLSCAASGFTFSSYEMNWVRQAPGKGLEWVSYISNSGSTIYYADSVKGRFTISRDNAETSLYLQMNSLRAEDTAVYYCAREGWGAYCAGDCYSGFDIWGQGTMVTVSS
# VL: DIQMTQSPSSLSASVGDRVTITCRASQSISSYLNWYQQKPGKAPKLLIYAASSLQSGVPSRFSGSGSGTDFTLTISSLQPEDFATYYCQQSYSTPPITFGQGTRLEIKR
# B3: H4H30071P (antibody, human IgG4 S228P, kappa, V domains shown)
# VH: QVQLQQSGPGLVKPSQTLSLTCAISGDSVSRNSAAWNWIRQSPSSGLEWLGRTYYRSKWFYDYAISVKSRITVNPDTSKNQFSLHLNSVTPEDTAVYYCARGYGGYEDYFDYWGQGTLVTVSS
# VL: DIQMTQSPSSVSASVGDRVTITCRASQGISSWLAWYQQKPGKAPKLLIYGASSLQSGVPSRFSGSGSGTDFTLTISSLQPEDFATYFCQQGSSFPYTFGQGTKLEIKR
# notes: HCVR 42, LCVR 50
# B4: H4H30066P (antibody, human IgG4 S228P, kappa, V domains shown)
# VH: QVQLVQSGAEVKKPGASVKVSCKVSGYTLTELSMHWVRQAPGKGLEWMGGFDPEDGEIIYAQKFQGRVTMTEDTSTDTAYMDLSSLTSEDTAVYYCATEKQQLVRKYYFYYGLAVWGQGTTVTVSS
# VL: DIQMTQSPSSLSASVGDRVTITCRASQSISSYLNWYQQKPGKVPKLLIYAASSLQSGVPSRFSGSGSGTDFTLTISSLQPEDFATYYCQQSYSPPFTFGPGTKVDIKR
# notes: HCVR 22, LCVR 30
# B5: H4H30089P2 (antibody, human IgG4 S228P, kappa, V domains shown)
# VH: EVQLVESGGGLVQPGGSLRLSCIVSGFIFSSYEMSWLRQAPGKGLEWISYISSSGRVIYYADSVKGRFTISRDSAKNSLYLEMNSLRAEDTAIYYCTRKWDSSGPFDFWGQGTLVTVSS
# VL: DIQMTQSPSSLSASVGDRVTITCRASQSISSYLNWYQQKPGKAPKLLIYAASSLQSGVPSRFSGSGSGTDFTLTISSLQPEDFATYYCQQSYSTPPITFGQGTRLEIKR
# notes: HCVR 62, LCVR 70
# What was measured:
# [1] = target: T1, human FGFR3b expressed with a C-terminal murine Fc tag (hFGFR3b.mFc) (human); assay: SPR Biacore, mAb captured on anti-hFc, 25C
# T1 construct: called dimeric; also called REGN3153; dimeric human FGFR3b
# T1 chain: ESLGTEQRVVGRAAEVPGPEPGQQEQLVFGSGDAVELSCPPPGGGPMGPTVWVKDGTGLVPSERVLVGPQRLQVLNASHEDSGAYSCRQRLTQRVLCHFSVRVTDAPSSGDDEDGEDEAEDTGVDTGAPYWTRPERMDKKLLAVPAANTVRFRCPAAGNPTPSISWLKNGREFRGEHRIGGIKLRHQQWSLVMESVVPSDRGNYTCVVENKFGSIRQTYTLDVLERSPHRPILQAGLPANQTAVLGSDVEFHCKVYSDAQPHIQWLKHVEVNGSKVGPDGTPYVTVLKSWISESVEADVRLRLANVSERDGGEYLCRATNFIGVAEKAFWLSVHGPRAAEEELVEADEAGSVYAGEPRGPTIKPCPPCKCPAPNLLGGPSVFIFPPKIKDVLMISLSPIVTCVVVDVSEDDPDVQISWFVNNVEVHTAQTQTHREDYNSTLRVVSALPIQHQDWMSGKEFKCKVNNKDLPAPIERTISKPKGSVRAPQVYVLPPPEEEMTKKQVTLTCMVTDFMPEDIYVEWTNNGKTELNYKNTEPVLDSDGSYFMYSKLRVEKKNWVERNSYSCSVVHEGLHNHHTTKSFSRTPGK
# Protocol: (§1) The CM5 Biacore sensor surface was derivatized by amine coupling with a monoclonal mouse anti-human Fc monoclonal antibody (REGN2567). […] Antibody-reagent association was monitored for 5 minutes while dissociation in HBS-EP running buffer was monitored for 10 minutes. At the end of each cycle, the anti-FGFR3 antibody capture surface was regenerated using a 10 sec injection of 20 mM phosphoric acid. All binding kinetics experiments were performed at 25° C.
# (§2) The specific SPR-Biacore sensorgrams were obtained by a double referencing procedure. The double referencing was performed by first subtracting the signal of each injection over a reference surface (anti-hFc) from the signal over the experimental surface (anti-hFc-captured anti-FGFR3 antibodies) thereby removing contributions from refractive index changes. In addition, running buffer injections were performed to allow subtraction of the signal changes resulting from the dissociation of captured antibodies from the coupled anti-hFc surface. Kinetic association (kₐ) and dissociation (kd) rate constants were determined by fitting the real-time sensorgrams to a 1:1 binding model using Scrubber v2.0c curve fitting software.
# [2] = target: T2, murine FGFR3b expressed with a C-terminal myc-myc-hexahistidine tag (mFGFR3b.mmH) (murine); assay: SPR Biacore, mAb captured on anti-hFc, 25C
# T2 construct: also called REGN3215; monomeric murine FGFR3b
# T2 chain: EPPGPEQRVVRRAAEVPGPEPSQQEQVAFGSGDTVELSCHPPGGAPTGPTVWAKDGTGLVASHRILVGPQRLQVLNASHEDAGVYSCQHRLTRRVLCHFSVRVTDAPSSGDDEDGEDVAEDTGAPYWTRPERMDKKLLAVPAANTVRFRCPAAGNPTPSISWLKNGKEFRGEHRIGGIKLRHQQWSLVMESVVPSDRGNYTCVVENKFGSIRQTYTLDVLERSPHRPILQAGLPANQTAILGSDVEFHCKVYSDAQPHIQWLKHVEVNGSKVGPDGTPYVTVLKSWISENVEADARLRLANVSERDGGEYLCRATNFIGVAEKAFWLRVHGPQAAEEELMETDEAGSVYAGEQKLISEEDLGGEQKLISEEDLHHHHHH
# Protocol: as §1, §2
# [3] = target: T3, human FGFR3b expressed with a C-terminal myc-myc-hexahistidine tag (hFGFR3b.mmH) (human); assay: SPR Biacore, mAb captured on anti-hFc, 25C
# T3 construct: also called REGN3152; monomeric human FGFR3b
# T3 chain: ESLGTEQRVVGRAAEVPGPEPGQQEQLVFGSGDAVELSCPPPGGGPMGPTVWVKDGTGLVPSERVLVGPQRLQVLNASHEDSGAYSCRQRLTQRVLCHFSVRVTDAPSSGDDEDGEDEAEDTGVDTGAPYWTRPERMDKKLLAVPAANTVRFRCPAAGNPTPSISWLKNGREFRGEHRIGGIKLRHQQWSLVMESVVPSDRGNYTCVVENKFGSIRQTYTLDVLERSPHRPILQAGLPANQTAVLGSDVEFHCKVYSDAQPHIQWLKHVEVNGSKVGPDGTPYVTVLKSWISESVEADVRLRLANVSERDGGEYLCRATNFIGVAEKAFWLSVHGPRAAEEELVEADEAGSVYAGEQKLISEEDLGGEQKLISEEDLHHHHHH
# Protocol: as §1, §2
# [4] = target: T4, cynomolgus FGFR3b expressed with a C-terminal myc-myc-hexahistidine tag (mfFGFR3b.mmH) (cynomolgus); assay: SPR Biacore, mAb captured on anti-hFc, 25C
# T4 construct: also called REGN3521; mf FGFR3b ecto (R357G)(E23-G377;R357G).mmH
# T4 chain: T3 chain with A13V, P17S, G22S, T57A, R94L, R171K
# Protocol: as §1, §2
# [5] = target: T5, human FGFR3c expressed with a C-terminal myc-myc-hexahistidine tag (hFGFR3c.mmH) (human, UniProt P22607 23-375); assay: SPR Biacore, mAb captured on anti-hFc, 25C; row marked NB
# T5 construct: also called REGN3155; monomeric human FGFR3c
# Protocol: as §1, §2
# [6] = target: full length human FGFR3b S249C on BaF3 cells (BAF3/FGFR3b_S249C, ACL11986) (human, UniProt P22607 23-808); assay: cell-based or functional assay
# [7] = target: full length human FGFR3b on BaF3 cells (BAF3/FGFR3b, ACL11991) (human, UniProt P22607 23-808); assay: cell-based or functional assay
# [8] = target: T1, human FGFR3b expressed with a …; assay: competition ELISA: 4 nM hFGFR3b-mFc binding to plate-coated hFGF acidic
# Protocol: The fixed concentration of hFGFR3b or hFGFR3c proteins was selected to be near the concentration that generated 50% of the maximal binding (EC₅₀ value) to plate-adhered hFGF acidic or hFGF basic protein. […] The plates were then developed using TMB substrate solution (BD Biosciences) according to the manufacturer's recommended procedure and absorbance at 450 nm was measured on a Victor X5 plate reader.
# Binding data were analyzed using a sigmoidal (four-parameter logistic) dose-response model using GraphPad Prism software. […] Percent blocking of FGFR3 antibody at a given concentration was calculated based on the formula shown below.
# The ability of anti-FGFR3 antibodies to block human FGFR3b binding to hFGF acidic protein or hFGFR3c binding to hFGF acidic or hFGF basic proteins was evaluated using a sandwich ELISA-based blocking assay.
# [9] = target: T5, human FGFR3c expressed with a …; assay: SPR Biacore, mAb captured on anti-hFc, 25C
# Protocol: as §1, §2
Binder,30 nM hFGFR3b.mFc Bind (RU) [1] [RU],koff [1] [s⁻¹],kon [1] [M⁻¹ s⁻¹],t½ [1] [min],90 nM mFGFR3b.mmH Bind (RU) [2] [RU],koff [2] [s⁻¹],kon [2] [M⁻¹ s⁻¹],t½ [2] [min],90 nM hFGFR3b.mmH Bind (RU) [3] [RU],koff [3] [s⁻¹],kon [3] [M⁻¹ s⁻¹],t½ [3] [min],90 nM mfFGFR3b.mmH Bind (RU) [4] [RU],Kd [4] [nM],koff [4] [s⁻¹],kon [4] [M⁻¹ s⁻¹],t½ [4] [min],90 nM hFGFR3c.mmH Bind (RU) [5] [RU],Kd [1] [nM],Kd [2] [nM],other results
B1,213,≤ 1e-05,311000,≥ 1160,121,0.00199,162000,5.8,227,0.000159,176000,72.6,212,0.909,0.000136,149000,85.2,-2.5,–,–,–
B2,–,–,–,–,–,–,–,–,–,–,–,–,126,1.75,0.00023,131000,50.2,–,–,–,"Max Blocking (%), BaF3 proliferation (CellTiter-Glo) with 1 nM FGF1 + 5 ug/ml heparin [6]: 34.5%; IC50 [M], BaF3 proliferation (CellTiter-Glo) with 1 nM FGF1 + 5 ug/ml heparin [7]: 1.86e-08 M; Max Blocking (%), BaF3 proliferation (CellTiter-Glo) with 1 nM FGF1 + 5 ug/ml heparin [7]: 41.1%"
B3,236,≤ 1e-05,322000,≥ 1160,174,0.00169,220000,6.9,253,2.96e-05,216000,390,233,0.123,2.22e-05,180000,520,-4.8,≤ 0.031,7.65,Kd [3]: 0.137 nM; % Blocking at 200 nM mAb [8]: 88%; IC50 [8]: 3.6 nM
B4,282,≤ 1e-05,632000,≥ 1160,64.6,0.00487,288000,2.4,224,0.000635,496000,18.2,203,1.99,0.000779,391000,14.8,0.5,≤ 0.0158,16.9,binding result [9]: no binding (tested: 90 nM); Kd [3]: 1.28 nM; % Blocking at 200 nM mAb [8]: 90%; IC50 [8]: 3.2 nM
B5,214,1.9e-05,312000,608,60,0.00238,281000,4.9,152,0.00282,276000,4.1,147,10.3,0.00221,216000,5.2,-6.7,0.061,8.45,Kd [3]: 10.2 nM; % Blocking at 200 nM mAb [8]: 68%; IC50 [8]: 15 nM
